Data on two molecules can be found in article PMC7948472, “Structural basis for antigen recognition by methylated lysine–specific antibodies” (The Journal of Biological Chemistry, 2020).

The target of the experiment is T1, MAP3K2 peptide, NPIFEKFGKGGTYP (Homo sapiens).
T1 construct: MAP3K2 peptide surrounding Lys260, not methylated; also called non-methylated peptide; nonmethylated peptide; source: synthetic peptide (SCRUM Inc)
T1 chain: NPIFEKFGKGGTYP
Put plainly: SPR; Biacore T200; each Fab immobilised on a CM5 chip by amine coupling; peptides injected at increasing concentrations; running buffer PBS with 0.005% Tween 20; global fitting of the curves, or steady-state analysis where kinetic parameters could not be determined (fast dissociation, low affinity). The following applies: both partners purified. Background: SPR reads the build-up and loss of mass on a sensor chip optically.

B1: Fab F9 (Fab, V domains shown)
VH: QSVEESGGRLVTPGTPLTLTCTVSGFSLNSNAISWVRQAPGEGLEWVGAIYTHGSTVYANWAKGRFTISKTSTTIELKMTSLTTEDTATYFCARHGYTYSFNLWGPGTLVTVSS
VL: AQGLTQTPSPVSAALGGTVTINCQSSQSVYGNNRLAWYQQKPGQPPKRLIYQASTLDSGVPSRFSGSGSGTQFTLTISGVQCDDAATYYCQGGYSSGDAWAFGGGTEVVVK
notes: heavy chain of rabbit Fab clone F9; they are in PDB 6LDV chain H; light chain of rabbit Fab clone F9; they are in PDB 6LDV chain L; Purified on Ni-NTA, so a His tag is surmised; source: Expi293 cells, cotransfected, purified from supernatant (Ni-NTA, SEC)
As usually defined, the Kd is the constant that tells how readily two partners part at equilibrium. Low values mean a tighter complex, high ones a looser complex. In general, koff refers to a measure of how fast the partners let go of each other. Low readings indicate a long-lived complex, high ones a short-lived complex. A word on the kon: it is the second-order rate constant of association. Higher therefore signals fast association. In the case of B1, the Kd stood at 4000 nM, the koff was 0.33 ± 0.04 s⁻¹ and the kon was found to be 86000 M⁻¹ s⁻¹.

B2: Fab E6 (Fab, V domains shown)
VH: DQSLEESGGRLVTPGTPLTLTCTVSGFSLNNNAMGWFRQAPGEGLEWIGAIYTDGSTYYASWAKGRFTISKTSTTIDLKMTSLTTEDTATYFCARHGYTYSFNLWGPGTLVTVSS
VL: DPVMTQTPPSVSAAVGGTVTISCQSSQSVYNNDNLAWYQQKPGQPPKRLIYGASTLDSGVPSRFKGSGSGTQFTLTISGVECDDAATYYCQGAYNVDIYPFGGGTEVVVK
notes: heavy chain of rabbit Fab clone E6; they are in PDB 6LDX chain H; light chain of rabbit Fab clone E6; they are in PDB 6LDX chain L; Purified on Ni-NTA, so a His tag is surmised; source: Expi293 cells, cotransfected, purified from supernatant (Ni-NTA, SEC)
B2 displayed a Kd of 350 nM, an off-rate (koff) of 0.18 ± 0.01 s⁻¹ and a kon of 500000 M⁻¹ s⁻¹.
